Target: Protein A (on chromatography support) (UniProt P38507)
Assay: Protein A column, linear pH gradient

Row | Substance | elution pH from Protein A column [pH]
1 | IgG1 heterodimer with two IgG1 heavy chains identical but for an H435R/Y436F dipeptide modification in one CH3 domain (from UniProt P01857 1-330) (antibody) | 3.9
2 | IgG1 homodimer (unmodified CH3) (antibody) | 3.7

— patent US20190031713A1
